Results as given in article PMC12290011, “Pseudomonadal itaconate degradation gene cluster encodes enzymes for methylsuccinate utilization” (Communications Biology, 2025).

Experiments:
[1] = target: T1, P. aeruginosa MmgE/PrpD family protein, (S)-(R)-methylsuccinate isomerase (Pseudomonas aeruginosa, UniProt Q9I564); assay: coupled assay with C. necator itaconate CoA transferase, UHPLC; assay type: biochemical; conditions: 2.5 mM substrate, pH 7.0, 5 mM MgCl2, 30 °C
T1 construct: gene PA0881; synthetic codon-optimized gene in pET16b, His-tagged, E. coli BL21(DE3), Ni-NTA purified
T1 sequence (Q9I564 1-450): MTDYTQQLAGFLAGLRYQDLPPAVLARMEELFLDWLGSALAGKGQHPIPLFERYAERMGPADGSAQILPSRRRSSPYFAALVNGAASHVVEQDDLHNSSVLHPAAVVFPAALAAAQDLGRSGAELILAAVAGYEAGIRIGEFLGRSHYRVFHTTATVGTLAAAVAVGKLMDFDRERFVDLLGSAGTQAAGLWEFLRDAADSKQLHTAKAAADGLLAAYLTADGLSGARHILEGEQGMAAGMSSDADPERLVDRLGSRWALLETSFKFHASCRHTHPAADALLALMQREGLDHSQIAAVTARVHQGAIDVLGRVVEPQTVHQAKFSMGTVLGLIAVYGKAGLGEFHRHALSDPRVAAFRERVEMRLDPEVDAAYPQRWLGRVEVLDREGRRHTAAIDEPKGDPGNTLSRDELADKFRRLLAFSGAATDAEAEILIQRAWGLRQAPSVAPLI

[2] = target: T2, Pa. xenovorans MmgE/PrpD family protein Bxe_B2582 (Paraburkholderia xenovorans, UniProt Q13R78); assay: as above; assay type: biochemical; conditions: 2.5 mM substrate, pH 7.0, 5 mM MgCl2, 30 °C
T2 construct: pET16b, His-tagged, E. coli BL21(DE3), Ni-NTA purified
T2 sequence (Q13R78 1-494): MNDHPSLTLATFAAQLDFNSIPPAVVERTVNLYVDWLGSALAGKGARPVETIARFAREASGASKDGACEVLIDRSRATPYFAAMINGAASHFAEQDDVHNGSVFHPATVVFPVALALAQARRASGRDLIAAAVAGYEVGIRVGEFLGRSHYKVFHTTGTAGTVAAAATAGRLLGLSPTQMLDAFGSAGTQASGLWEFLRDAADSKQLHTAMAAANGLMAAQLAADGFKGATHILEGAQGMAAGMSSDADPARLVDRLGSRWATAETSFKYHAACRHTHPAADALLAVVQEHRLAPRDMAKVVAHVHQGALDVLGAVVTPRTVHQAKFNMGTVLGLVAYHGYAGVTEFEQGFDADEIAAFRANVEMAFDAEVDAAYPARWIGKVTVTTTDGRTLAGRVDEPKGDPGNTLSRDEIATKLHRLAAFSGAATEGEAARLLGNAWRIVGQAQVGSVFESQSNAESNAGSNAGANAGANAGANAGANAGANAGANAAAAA

[3] = target: T3, C. necator MmgE/PrpD family protein, (S)-(R)-methylsuccinate isomerase (Cupriavidus necator, UniProt Q0K3E6); assay: as above; assay type: biochemical; conditions: 2.5 mM substrate, pH 7.0, 5 mM MgCl2, 30 °C
T3 construct: gene prpD2; synthetic codon-optimized gene in pET16b, His-tagged, E. coli BL21(DE3), Ni-NTA purified
T3 sequence (Q0K3E6 1-460): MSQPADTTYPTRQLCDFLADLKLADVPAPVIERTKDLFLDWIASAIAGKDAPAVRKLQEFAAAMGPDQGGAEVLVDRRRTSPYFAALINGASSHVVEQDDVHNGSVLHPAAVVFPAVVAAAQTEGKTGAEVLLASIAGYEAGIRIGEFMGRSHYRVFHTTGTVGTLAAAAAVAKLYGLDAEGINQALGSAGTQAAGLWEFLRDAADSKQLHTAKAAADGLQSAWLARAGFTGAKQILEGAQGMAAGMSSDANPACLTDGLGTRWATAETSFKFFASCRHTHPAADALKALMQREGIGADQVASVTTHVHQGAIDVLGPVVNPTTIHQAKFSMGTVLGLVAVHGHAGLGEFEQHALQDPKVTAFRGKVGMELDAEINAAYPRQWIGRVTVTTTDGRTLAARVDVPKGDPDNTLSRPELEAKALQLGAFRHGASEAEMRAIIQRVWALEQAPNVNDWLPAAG

C=C(CC(=O)O)C(=O)O = assay: purified protein; conditions: 1 mM succinyl-CoA, pH 7.0, 5 mM MgCl2, 30 °C
Text: (§4) UHPLC assay of CoA-esters on P. aeruginosa itaconate CoA transferase
C[C@@H](CC(=O)O)C(=O)O = assay: purified protein; conditions: 1 mM succinyl-CoA, pH 7.0, 5 mM MgCl2, 30 °C
Text: as §4
C[C@H](CC(=O)O)C(=O)O = assay: purified protein; conditions: 1 mM succinyl-CoA, pH 7.0, 5 mM MgCl2, 30 °C
Text: as §4

[4] = substrate: C=C(CC(=O)O)C(=O)O; assay: UHPLC assay of CoA-esters; assay type: biochemical, Cupriavidus necator; conditions: 1 mM succinyl-CoA, pH 7.0, 5 mM MgCl2, 30 °C
Text: (§1) UHPLC assay of CoA-esters on C. necator itaconate CoA transferase

[5] = substrate: CC(C)(COP(=O)(O)OP(=O)(O)OC[C@H]1O[C@@H](n2cnc3c(N)ncnc32)[C@H](O)[C@@H]1OP(=O)(O)O)[C@@H](O)C(=O)NCCC(=O)NCCSC(=O)CCC(=O)O; assay: UHPLC assay of CoA-esters; assay type: biochemical, Cupriavidus necator; conditions: 10 mM itaconate, pH 7.0, 5 mM MgCl2, 30 °C
Text: as §1

[6] = substrate: O=C(O)CCCC(=O)O; assay: UHPLC assay of CoA-esters; assay type: biochemical, Cupriavidus necator; conditions: 1 mM succinyl-CoA, pH 7.0, 5 mM MgCl2, 30 °C
Text: as §1

[7] = substrate: C[C@](O)(CC(=O)O)C(=O)O; assay: UHPLC assay of CoA-esters; assay type: biochemical, Cupriavidus necator; conditions: 1 mM succinyl-CoA, pH 7.0, 5 mM MgCl2, 30 °C
Text: as §1

[8] = substrate: C[C@H](CC(=O)O)C(=O)O; assay: UHPLC assay of CoA-esters; assay type: biochemical, Cupriavidus necator; conditions: 1 mM succinyl-CoA, pH 7.0, 5 mM MgCl2, 30 °C
Text: as §1

[9] = substrate: C[C@@H](CC(=O)O)C(=O)O; assay: UHPLC assay of CoA-esters; assay type: biochemical, Cupriavidus necator; conditions: 1 mM succinyl-CoA, pH 7.0, 5 mM MgCl2, 30 °C
Text: as §1

purified protein = substrate: O=C(O)C[C@H](O)C(=O)O; assay: purified protein; conditions: 1 mM succinyl-CoA, pH 7.0, 5 mM MgCl2, 30 °C
[10] = substrate: C[C@@H](CC(=O)SCCNC(=O)CCNC(=O)[C@H](O)C(C)(C)COP(=O)(O)OP(=O)(O)OC[C@H]1O[C@@H](n2cnc3c(N)ncnc32)[C@H](O)[C@@H]1OP(=O)(O)O)C(=O)O; assay: UHPLC assay of mesaconyl-CoA formation; assay type: biochemical, Pseudomonas aeruginosa; conditions: 1 mM phenazine methosulfate as electron acceptor, pH 7.0, 5 mM MgCl2, 30 °C
Text: (§2) UHPLC assay of mesaconyl-CoA formation on P. aeruginosa methylsuccinyl-C4-CoA dehydrogenase

[11] = substrate: C[C@H](CC(=O)SCCNC(=O)CCNC(=O)[C@H](O)C(C)(C)COP(=O)(O)OP(=O)(O)OC[C@H]1O[C@@H](n2cnc3c(N)ncnc32)[C@H](O)[C@@H]1OP(=O)(O)O)C(=O)O; assay: UHPLC assay of mesaconyl-CoA formation; assay type: biochemical, Pseudomonas aeruginosa; conditions: 1 mM phenazine methosulfate as electron acceptor, pH 7.0, 5 mM MgCl2, 30 °C
Text: as §2

[12] = substrate: C[C@@H](CC(=O)SCCNC(=O)CCNC(=O)[C@H](O)C(C)(C)COP(=O)(O)OP(=O)(O)OC[C@H]1O[C@@H](n2cnc3c(N)ncnc32)[C@H](O)[C@@H]1OP(=O)(O)O)C(=O)O; assay: UHPLC assay of mesaconyl-CoA formation; assay type: biochemical, Cupriavidus necator; conditions: 1 mM phenazine methosulfate as electron acceptor, pH 7.0, 5 mM MgCl2, 30 °C
Text: (§3) UHPLC assay of mesaconyl-CoA formation on C. necator methylsuccinyl-C4-CoA dehydrogenase

[13] = substrate: C[C@H](CC(=O)SCCNC(=O)CCNC(=O)[C@H](O)C(C)(C)COP(=O)(O)OP(=O)(O)OC[C@H]1O[C@@H](n2cnc3c(N)ncnc32)[C@H](O)[C@@H]1OP(=O)(O)O)C(=O)O; assay: UHPLC assay of mesaconyl-CoA formation; assay type: biochemical, Cupriavidus necator; conditions: 1 mM phenazine methosulfate as electron acceptor, pH 7.0, 5 mM MgCl2, 30 °C
Text: as §3

Molecule: C[C@H](CC(=O)O)C(=O)O [(R)-Methylsuccinate]
- coupled assay with C. necator itaconate CoA transferase, UHPLC [1]: both MmgE/PrpD proteins catalyzed the isomerization of (S)-methylsuccinate to (R)-methylsuccinate
- coupled assay with C. necator itaconate CoA transferase, UHPLC [2]: we tested the isomerase activity of the Pa. xenovorans MmgE/PrpD family protein Bxe_B2582
- coupled assay with C. necator itaconate CoA transferase, UHPLC [3]: both MmgE/PrpD proteins catalyzed the isomerization of (S)-methylsuccinate to (R)-methylsuccinate

Molecule: P. aeruginosa itaconate CoA transferase (Pseudomonas aeruginosa PAO1)
- Km (C=C(CC(=O)O)C(=O)O): 800 ± 300 µM
- Vmax (C=C(CC(=O)O)C(=O)O): 73 µmol/min/mg
- kcat/Km (C=C(CC(=O)O)C(=O)O): 66300 M⁻¹ s⁻¹
- Km (C[C@@H](CC(=O)O)C(=O)O): 17800 ± 8000 µM
- Vmax (C[C@@H](CC(=O)O)C(=O)O): 54.3 µmol/min/mg
- kcat/Km (C[C@@H](CC(=O)O)C(=O)O): 2200 M⁻¹ s⁻¹
- Km (C[C@H](CC(=O)O)C(=O)O): 600 ± 200 µM
- Vmax (C[C@H](CC(=O)O)C(=O)O): 69.8 µmol/min/mg
- kcat/Km (C[C@H](CC(=O)O)C(=O)O): 88000 M⁻¹ s⁻¹

Molecule: C[C@@H](CC(=O)O)C(=O)O [(S)-Methylsuccinate]
- coupled assay with C. necator itaconate CoA transferase, UHPLC [1]: both MmgE/PrpD proteins catalyzed the isomerization of (S)-methylsuccinate to (R)-methylsuccinate
- coupled assay with C. necator itaconate CoA transferase, UHPLC [2]: we tested the isomerase activity of the Pa. xenovorans MmgE/PrpD family protein Bxe_B2582
- coupled assay with C. necator itaconate CoA transferase, UHPLC [3]: both MmgE/PrpD proteins catalyzed the isomerization of (S)-methylsuccinate to (R)-methylsuccinate

B1: C. necator itaconate CoA transferase (Cupriavidus necator H16) (protein)
chain: MSHSPKGIRPLDGIRVVSLEHAVAAPFATRQLADLGARVIKIERPGVGDFARGYDQSVHGQASYFVWLNRGKESLTLDLKDREAQAILHRLLADADVLVQNLAPGAAVRMGLDFDSLHGKYDKLIVCDISGYGDSGPYRDKKAYDLLIQAAAGLVGLTGGPNEPSRAGVSIADISAGMYAYSGILSALLQRGRTGKGLRVQVTMLEAMAEWMNQVLYFGHYGGKPPGRFGASHPTIAPYGVHRTGNGSVIFSVQNEREFANFCEIVLGNRELAQDERFSSNTARVHNRPELTAIIEERFAPMTVAQAEALLDEAQIANAPMNDIEGVWNHPQLQARQRWREVATPGGPIGALLPPANLSGVEPVMGDVPALGAHSRQILAELGYDDGDIAALADKRTI
notes: pET16b, N-terminal His-tag, E. coli BL21(DE3), Ni-NTA purified
- Km [4]: 4000 ± 1700 µM
- Vmax [4]: 53.2 µmol/min/mg
- kcat/Km [4]: 9500 M⁻¹ s⁻¹
- Km [5]: 760 ± 200 µM
- Vmax [5]: 116 µmol/min/mg
- kcat/Km [5]: 109000 M⁻¹ s⁻¹
- Km [6]: 37400 ± 8900 µM
- Vmax [6]: 3.2 µmol/min/mg
- kcat/Km [6]: 60 M⁻¹ s⁻¹
- Km [7]: 15600 ± 2300 µM
- Vmax [7]: 10.2 µmol/min/mg
- kcat/Km [7]: 500 M⁻¹ s⁻¹
- Km [8]: 900 ± 100 µM
- Vmax [8]: 82 µmol/min/mg
- kcat/Km [8]: 65200 M⁻¹ s⁻¹
- Km [9]: 35600 ± 3200 µM
- Vmax [9]: 35.6 µmol/min/mg
- kcat/Km [9]: 700 M⁻¹ s⁻¹
- Km (purified protein): 42800 ± 17200 µM
- Vmax (purified protein): 1.1 µmol/min/mg
- kcat/Km (purified protein): 20 M⁻¹ s⁻¹

B2: P. aeruginosa methylsuccinyl-C4-CoA dehydrogenase (Pseudomonas aeruginosa PAO1) (protein)
chain: MNPNSEELNAIREGVRALCAEFDAAYWRRIDEQRGFPEAFVKALTDAGWLSAMIPEEYGGSGLGLAEASVILEEVNRCGGNSGTVHGQMYNMFTLLRNGSEAQKRFYLPKLASGELRLQSMGVTEPTTGTDTTKIKTTAVRKGDRYVINGQKVWISRIQHSDLMILLARTTPLAEVKRKSEGMSIFLVDLREAIGKGLTVQPIANMVNHETNELFFDNLEIPADSLIGEEGKGFRYILDGLNAERTLIAAECIGDGRWFIDKASHYARDRVVFGRPIGQNQGVQFPIAEAHIEVEAADLMRWRACQEYDAGLNAGASANMAKYLAAKASWEAANACLQTHGGFGFACEYDVERKFRETRLYQVAPISTNLILSYVAEHLLELPRSF
notes: synthetic codon-optimized gene in pET23a, His-tagged, E. coli BL21(DE3), Ni-NTA purified with FAD in buffers
- Km [10]: 470 ± 130 µM
- Vmax [10]: 2.8 µmol/min/mg
- kcat/Km [10]: 4300 M⁻¹ s⁻¹
- Km [11]: 590 ± 140 µM
- Vmax [11]: 3.38 µmol/min/mg
- kcat/Km [11]: 4100 M⁻¹ s⁻¹

B3: C. necator methylsuccinyl-C4-CoA dehydrogenase (Cupriavidus necator H16) (protein)
chain: MHAHQDPDQLYPEIREAVRDLCAGFDSAYWQRVEEQNAFPETFVQALTQAGWLSALIPEAYGGSGLSLTAASVIMEEINRSGGNSGACHGQMYVMGCLLRHGSEAQKQRWLPGIASGELRMQSMAVTEPTTGTDTTKLKTTAVRQGDKYIVNGQKVWISRVQHSDLMLLLARTTPLDQVKRKSEGLSVFVVDLRDAIGKGLTVKPIRNMVNHETNELFFDNLEVPAGNLIGEEGKGLKYILDGLNAERILIAAECIGDGYWFVERASNYARDRIVFDRPIGQNQAVQFPIARSYINVEAASLMRYKASQLFDAGKPCGKEANISKLLAADASWEAANVCLQTHGGFGFAAEYDIERKFRETRLYQVAPISTNLILSYVAEHVLELPRSF
notes: pET23b, His-tagged, E. coli BL21(DE3), Ni-NTA purified with FAD in buffers
- Km [12]: 420 ± 140 µM
- Vmax [12]: 0.69 µmol/min/mg
- kcat/Km [12]: 1200 M⁻¹ s⁻¹
- Km [13]: 360 ± 80 µM
- Vmax [13]: 0.72 µmol/min/mg
- kcat/Km [13]: 1500 M⁻¹ s⁻¹
